{"source": "a protein production outcome set (Wang et al. 2014)", "test": "label from the status in PepcDB records"}
{"sequence": "MSQEYTEDKDVTLTKLSSGRRLLEALLILIALFAVWLMAALLSFNPSDPSWSQTAWHEPIHNLGGAPGAWLADTLFFIFGVMAYTIPVIIVGGCWFAWRHQSTDDYIDYFAVSLRLIGVLALILTSCGLAAINADDIWYFASGGVIGSLLSTTLQPLLHSSGGTIMLLCIWAAGLTLFTGWSWVSIAEKLGGWLLNILTFASNRTRRDDTWVDDEEYDDEYDEETDGVQRESRRARILRGALARRKRLAEKFSNPRGRQTDAALFSGKRMDDDEDIQYSARGVAADPDDVLFSGNRATQPEYDEYDPLLNGHSVTEPVAAAAAATAVTQTWAASADPIMQTPPMPGAEPVVAQPTVEWQPVPGPQTGEPVIAPAPEGYQPHPQYAQPQEAQSAPWQQPVPVASAPQYAATPATAAEYDSLAPQETQPQWQAPDAEQHWQPEPTHQPEPIAAEPSHMPPPVIEQPVTTEPEPGIEETRPARPPLYYFEEVEEKRAREREQLAAWYQPIPEPVKENVPVKPTVSVAPSIPPVEAVAAAASLDAGIKSGALAAGAAAAAPAFSLATGGAPRPQVKEGIGPQLPRPNRVRVPTRRELASYGIKLPSQRIAEEKAREAERNQYETGVQLTDEEIDAMHQDELARQFAQSQQHRYGETYQHDTQQAEDDDTAAEAELARQFAASQQQRYSGEQPAGAQPFSLDDLDFSPMKVLVDEGPHEPLFTPGVMPESTPVQQPVAPQPQPQYQQSQQPVAPQSQYQQPQQPVAPQPQPQYQQSQQPVAPQSQYQQPQQPVAPQPQYQQPQQPVAPQPQYQQPQQPTAPQPQYQQPVAPQPQYQQPQQPVAPQPQYQQPQQPTAPQDSLIHPLLMRNGDSRPLQRPTTPLPSLDLLTPPPSEVEPVDTFALEQMARLVEARLADFRIKADVVNYSPGPVITRFELNLAPGVKAARISNLSRDLARSLSTVAVRVVEVIPGKPYVGLELPNKKRQTVYLREVLDNAKFRENPSPLTVVLGKDIAGDPVVADLAKMPHLLVAGTTGSGKSVGVNAMILSMLYKAQPEDVRFIMIDPKMLELSVYEGIPHLLTEVVTDMKDAANALRWSVNEMERRYKLMSALGVRNLAGYNEKIAEAARMGRPIPDPYWKPGDSMDVQHPVLEKLPYIVVLVDEFADLMMTVGKKVEELIARLAQKARAAGIHLVLATQRPSVDVITGLIKANIPTRIAFTVSSKIDSRTILDQGGAESLLGMGDMLYSGPNSTMPVRVHGAFVRDQEVHAVVQDWKARGRPQYVDGITSDSESEGGGGGFDGGEELDALFDQAVNFVTQKRKASISGVQRQFRIGYNRAARIIEQMEAQGIVSAQGHNGNREVLAPPPFE", "values": [{"measurement": "protein production", "result": "failed"}]}
{"sequence": "MSTRSARIVVVSSRAAAGVYTDDCGPIIAGWLEQHGFSSVQPQVVADGNPVGEALHDAVNAGVDVIITSGGTGISPTDTTPEHTVAVLDYVIPGLADAIRRSGLPKVPTSVLSRGVCGVAGRTLIINLPGSPGGVRDGLGVLADVLDHALEQIAGGDHPR", "values": [{"measurement": "protein production", "result": "not failed"}]}
{"sequence": "MNRFLTSIVAWLRAGYPEGIPPTDSFAVLALLCRRLSHDEVKAVANELMRLGDFDQIDIGVVITHFTDELPSPEDVERVRARLAAQGWPLDDVRDREEHA", "values": [{"measurement": "protein production", "result": "not failed"}]}
{"sequence": "MGHHHHHHSHMDDIFTQCREGNAVAVRLWLDNTENDLNQGDDHGFSPLHWACREGRSAVVEMLIMRGARINVMNRGDDTPLHLAASHGHRDIVQKLLQYKADINAVNEHGNVPLHYACFWGQDQVAEDLVANGALVSICNKYGEMPVDKAKAPLRELLRERAEK", "values": [{"measurement": "protein production", "result": "not failed"}]}
{"sequence": "SVILFDRTFISPTEISDIYTKDAIGMKKADYLRKKLTSIFPEIEVQNLPDTINISNYLNDSDFDIIIVNSEHFNIKLLSELNDLLYKISTPYMYAWIEGSRGYIGPLIYPPDTSCFNCYLTWRFFGTFMEDKIKAINNYGSSGYIFPLDKIIGALTVLEVCKAIGSLGTPLFNKIILVEVLPTLTIRYIPILKDPKCNVCEG", "values": [{"measurement": "protein production", "result": "failed"}]}
{"sequence": "PAAEAAPMSLAIHSTTGTRYDLAVPPDETVEGLRKRLSQRLKVPKERLALLHKDTRLSSGKLQEFGVGDGSKLTLVPTVEAGLMSQASRPEQSVMQ", "values": [{"measurement": "protein production", "result": "failed"}]}
{"sequence": "MMMLNPSNGGIEGEKMKKKAKVVVIMGPTGSGKSKLAVDLASHFPVEIINADAMQIYSGLDVLTNKVTVDEQKGVPHHLLGTVSSDMEFTARDFRDFTVPLIEEIVSRNHIPVLVGGTHYYIQAVVSKFLLDDAAEDTEECCADVASVVDQDMVVESVFGRDDLSHGYELLKELDPVAANRIHPNNHRKINQYLSLHASRGVLPSKLYQGKTAENWGCINASRFDYCLICMDAETAVLDRYVEQRVDAMVDAGLLDEVYDIYKPGADYTRGLRQSIGVREFEDFLKIHLSETCAGHLTSLSNDDKVMKENLRKILNFPKDDKLRIMLEEAIDRVKLNTRRLLRRQKRRVSRLETVFGWNIHYIDATEYILSKSEESWNAQVVKPASEIIRCFLETETESGRDPTSGKSIERDLWTQYVCEACGNKILRGRHEWEHHKQGRTHRKRTTRHKNSQTYKNREVQEAEVN", "values": [{"measurement": "protein production", "result": "failed"}]}
{"sequence": "MKVGVIGASEMAGSAIYKLAKQNLEIDVTGIVRHESKAKKVLGDDAKLIVGDIFALSDNILDKFDVIIDAFGTDPKNAEEHVILAKKLINLVRKNKIRVIFILGAGSLHTGDDEHLVVDDIAQMDNADTWINTPRQQLKELEYLNSIDDVDWLGISPALQFEAGPATEYIEGTDELLYNKDGDSKLTSGTMATVVIKETVDSVHHQERITIANALEHHHHHH", "values": [{"measurement": "protein production", "result": "not failed"}]}
{"sequence": "MKTYTSVIFWMRTIACLSIVLIHSITTTFSKMDFLGHGTAIRVFQLMLMFSTPLFVFISEFLLAKNYQVKTKPGFFKNKLIYLGIPYIIINIGIALFYFESKTFDQFMTHLGDTMFHGGAVTYFIVIIFQFYILHILFAKYLIKWKPVPVIIGAVIFATIYWAFRQYAPQSEHPILGLFWEREGWMLFLGWISYFLLGFYTGIYYETFMKKIKKYTWPIIIGAIIATSILVDNYLFGISTWVESKRFDIPFYVKMVILVFFLFASYVKYVPKFILFISNYSFCIYLIHYFFVHELGLLRAASSLRNIAFNFIITLTVSICLAYIFNLSKYGKFIVGGIGHIKYDKVYESYKHGKMD", "values": [{"measurement": "protein production", "result": "failed"}]}
{"sequence": "MKKAAAYTFCFLLLSGVGIILFMDIHPAFGGIPTTEQKEAYRELDNYVDGNFVNDVPTRRAFVDPSDTTSTTNTSASEVKDRNPVSPIPVYVIDWNKINSENDSLTWFGHSAFLLNVDNKQLLIDPMLGPVVSPVSFVGRNRYEYSEDIMLHLIDEMPPIDAVLITHDHYDHLDYRSIVKLNNKVSHFFVPLGCSAHLIRWGIPEEKITELNWWEETEYQGLTVALTPSRHSSGRNPFNIDTTLWGGWVILGNKTRVYTSGDSGYGPHFKQIGDKYGPFDITLIEGAQYDRNWPDLHMVPEQAIQANLDVGGKTMMLMHWGAFTLANHAWNEPIERALKEAKIREVNIIAPMIGETVLLDSDLQTSPTSWWDF", "values": [{"measurement": "protein production", "result": "failed"}]}
{"sequence": "MRFLSLVGNSFGCSASGERLVSAARDGDLQEAKALLDYNPRLARYSTFGVRNSPLHYSAAQGHHEIVSLLVESGVDINLRNYRGQTALMQACQHGHWEVVLILILFGANIHRSDYLNGGTALHLAALNGHPRCIRILLSEYIPSVPNCWSLLKNKKTSVAGFDSSVLHEVINRAADGGITPLHVAALNGHIETVQLLLDLGASVTQVTVEDGTTIDLIGAGSTALHYASCGGNTQCCQLLISKGACLAAVNSNGWTPMMVARSWHRNWLEEILNPTTEQPQLHLPNVPSPFLCLPLMSIVNIAQECGWRENDCLTPCRDPCAVCLERKCTVAADGCAHEFCTNCALYLSTTSITSSKTSNVTPGSVPCPLCRNGIVSFTKLPHTTATTRTSTSSRTSISLSFCTCSSDVLDTALLTNPHYSCKPVVSRTGSRTPQSARSSAFRSLSCRRFPPSLCLGGSDVDEPRSRLIGGSYSRSGVGFRRSTSQVEGKRSWFSALNHCVTTGGSAC", "values": [{"measurement": "protein production", "result": "failed"}]}
{"sequence": "MKYRFIDHTADIAFEVYGSNLRELFENAALAFYDAFVDTSGIGIEREVGVECEGEDVEITLYRWLNELLYLFDTEFFAAKDVEVEVEEGDGVKASGKLRGGRFSAEMVKVEPKAITLHKFRVEKTDKGYVAFVVVDI", "values": [{"measurement": "protein production", "result": "failed"}]}
{"sequence": "MAKIITPLSANQVKNAKPGDKLYKLSDGGGLALWVYPTGRRSWKLSFMQDGRQQTISLGRYPDFSLAEAREWREEVRRKRAHGENVVNKKVRADFAFEKVARDWFVRWSKGRSEKYAGQVMRNFERWVFPAIGNLDIRQVRTADVVGCLRVMEARGIVDTLRKTKNSLKMVFAFAVGSGMMEINPVAQIGSGVFERVKTKNMTALSPSELPRLIDFLEQRNEFAVYAGRVHIHPVTRFCIYWLLLTMTRIREAALMEWSELDGEVWRIPAERKKERRGHDVPLSRAMRWVLDQARGLNVNGRFVFESVNFQGHINKESPHVAMRRSGLDTTAHGLRSLARTYLREVLKVYNDVAEKLLAHSLGTRTQTAYNRSELWEERKDAPERWGNDVLRLADNGK", "values": [{"measurement": "protein production", "result": "failed"}]}
